Several values for one entry are separate records, joined by “and”; a condition that tells them apart may be missing. Equal values may be shown once. Read-outs that look alike come from different tables or passages of the source. Each block holds one compound with its values, some of them ahead of it. Square brackets hold non-standard residues; d marks the D form. Ends that are not written are not given here. Peptide text beside a SMILES is read from it. * marks the point of attachment. ξ: configuration not given here. Biotin = O=C1N[C@H]2[C@H](CS[C@H]2CCCCC(=O)*)N1; ξGly(nC16H33) = CCCCCCCCCCCCCCCCC(N)C(=O)O; Palmitoyl = CCCCCCCCCCCCCCCC(=O)*; NHhexadecyl = CCCCCCCCCCCCCCCCN*; Myristoyl = CCCCCCCCCCCCCC(=O)*
Target: CXCR4 (Homo sapiens, UniProt P61073)
Experiment: Chemotaxis assay, effect on SDF1-a (CXCL12) induced migration of CCRF-CEM cells
Type: cell-based
Parameters: a human T-cell ALL line that endogenously expresses CXCR4; endogenous in cells; host or cells: CCRF-CEM (human T-cell ALL line)
Conditions: for activity at 1 µM: CCRF-CEM
[1] = Table 18, i1 loop, CEM cells, drug conc 1.0 uM, read-out: AUC (% of)
[2] = Table 18, i1 loop, CEM cells, drug conc 1.0 uM, read-out: Max (% of)
[3] = Table 18, i1 loop, CEM cells, drug conc 1.0 uM
[4] = Table 20, i3 loop, CEM cells, conc 0.01 uM
[5] = Table 20, i3 loop, CEM cells, conc 0.03 uM
[6] = Table 20, i3 loop, CEM cells, conc 0.1 uM
[7] = Table 20, i3 loop, CEM cells, conc 0.3 uM
[8] = Table 20, i3 loop, CEM cells, conc 1.0 uM
[9] = Table 20, i3 loop, CEM cells, conc 3.0 uM
[10] = Table 20, i3 loop, CEM cells, conc 1.0 uM, read-out: AUC (% of vehicle)
[11] = Table 20, i3 loop, CEM cells, conc 1.0 uM, read-out: Max (% of vehicle)
[12] = Table 20, i3 loop, CEM cells, conc 1.0 uM, peak test compound/peak control
[13] = Table 21, i4 loop, CEM cells, conc 1.0 uM

Sequence of CXCR4 (P61073 whole entry): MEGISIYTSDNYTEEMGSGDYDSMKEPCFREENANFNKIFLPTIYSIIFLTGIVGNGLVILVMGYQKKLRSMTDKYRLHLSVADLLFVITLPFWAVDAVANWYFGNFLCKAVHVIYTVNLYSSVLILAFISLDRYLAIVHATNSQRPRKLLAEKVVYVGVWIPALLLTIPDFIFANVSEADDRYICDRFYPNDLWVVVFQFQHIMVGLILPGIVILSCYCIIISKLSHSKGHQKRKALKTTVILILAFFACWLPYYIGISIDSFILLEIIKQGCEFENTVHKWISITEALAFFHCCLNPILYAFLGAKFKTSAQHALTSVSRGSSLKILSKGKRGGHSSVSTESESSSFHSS

- activity at 1 µM [1]: 100%
- activity at 1 µM [2]: 93.1%
- Peak Test Comp. [3]: 25 nM
- Peak Ratio (Table 18, i1 loop, CEM cells, drug conc 1.0 uM, peak test comp./peak control): 1
Compound: CCCCCCCCCCCCCCCC(=O)N[C@@H](CO)C(=O)NCC(=O)N[C@@H](Cc1ccc(O)cc1)C(=O)N[C@@H](CCC(N)=O)C(=O)N[C@@H](CCCCN)C(=O)N[C@@H](CCCCN)C(=O)N[C@@H](CC(C)C)C(=O)N[C@@H](CCCNC(=N)N)C(=O)N[C@@H](CO)C(=O)N[C@@H](CO)C(=O)N[C@H](C(=O)N[C@@H](CC(=O)O)C(N)=O)[C@@H](C)O [Compound 69] (Palmitoyl-SGYQKKLRSSTD-NH2)

- AUC (% of vehicle) [4]: 172.33 % of vehicle
- Max (% of vehicle) [4]: 156.08 % of vehicle
- Peak Test Compound [4]: 0.03 nM
- AUC (% of vehicle) [5]: 226.59 % of vehicle
- Max (% of vehicle) [5]: 202.16 % of vehicle
- Peak Test Compound [5]: 0.03 nM
- AUC (% of vehicle) [6]: 183.19 % of vehicle
- Max (% of vehicle) [6]: 157.79 % of vehicle
- Peak Test Compound [6]: 0.03 nM
- AUC (% of vehicle) [7]: 131.2 % of vehicle
- Max (% of vehicle) [7]: 113.68 % of vehicle
- AUC (% of vehicle) [8]: 143.61 % of vehicle
- Max (% of vehicle) [8]: 131.59 % of vehicle
- Peak Test Compound [8]: 0.8 nM
- AUC (% of vehicle) [9]: 116.49 % of vehicle
- Max (% of vehicle) [9]: 114.49 % of vehicle
- Peak Test Compound [9]: 0.8 nM
Compound: Pal-SKLSHSKGHQKRKALKTTVIL-amide (Palmitoyl-SKLSHSKGHQKRKALKTTVIL-NH2; SMILES CCCCCCCCCCCCCCCC(=O)N[C@@H](CO)C(=O)N[C@@H](CCCCN)C(=O)N[C@@H](CC(C)C)C(=O)N[C@@H](CO)C(=O)N[C@@H](Cc1c[nH]cn1)C(=O)N[C@@H](CO)C(=O)N[C@@H](CCCCN)C(=O)NCC(=O)N[C@@H](Cc1c[nH]cn1)C(=O)N[C@@H](CCC(N)=O)C(=O)N[C@@H](CCCCN)C(=O)N[C@@H](CCCNC(=N)N)C(=O)N[C@@H](CCCCN)C(=O)N[C@@H](C)C(=O)N[C@@H](CC(C)C)C(=O)N[C@@H](CCCCN)C(=O)N[C@H](C(=O)N[C@H](C(=O)N[C@H](C(=O)N[C@H](C(=O)N[C@@H](CC(C)C)C(N)=O)[C@@H](C)CC)C(C)C)[C@@H](C)O)[C@@H](C)O) [Compound 88]
- positive allosteric modulation of the SDF1-a dependent chemotactic response (RFU) (30 nM of compound): induces a positive SDF1-a mediated chemotactic response

- activity at 1 µM [1]: 51.6%
Compound: CCCCCCCCCCCCCCCCNC(=O)[C@H](CCCCN)NC(=O)[C@H](CC(=O)O)NC(=O)[C@@H](NC(=O)[C@H](CCSC)NC(=O)[C@H](CO)NC(=O)[C@H](CCCNC(=N)N)NC(=O)[C@H](CC(C)C)NC(=O)[C@H](CCCCN)NC(=O)[C@H](CCCCN)NC(=O)[C@H](CCC(N)=O)NC(=O)[C@H](Cc1ccc(O)cc1)NC(=O)CNC(=O)[C@H](CCSC)NC(C)=O)[C@@H](C)O [Compound 59] (Ac-MGYQKKLRSMTDK-NHhexadecyl)

- activity at 1 µM [10]: 45%
- activity at 1 µM [11]: 64.5%
- Peak Test Compound [8]: 0.2 nM
- Peak Ratio [12]: 0.2
Compound: CCCCCCCCCCCCCCCC(=O)N[C@@H](Cc1cnc[nH]1)C(=O)N[C@@H](CO)C(=O)N[C@@H](CCCCN)C(=O)NCC(=O)N[C@@H](Cc1cnc[nH]1)C(=O)N[C@@H](CCC(N)=O)C(=O)N[C@@H](CCCCN)C(=O)N[C@@H](CCCNC(=N)N)C(=O)N[C@@H](CCCCN)C(=O)N[C@@H](C)C(=O)N[C@@H](CC(C)C)C(=O)N[C@@H](CCCCN)C(=O)N[C@H](C(=O)N[C@H](C(=O)N[C@H](C(N)=O)C(C)C)[C@@H](C)O)[C@@H](C)O [Compound 99] (Palmitoyl-HSKGHQKRKALKTTV-NH2)

- AUC (% of vehicle) [13]: 40.98 % of Vehicle
- Max (% of vehicle) [13]: 42.08 % of Vehicle
Compound: 110: CXCR4 i4 domain compound (GAKFKTSAQHALTSVSRGSSLKILSKGKRGGHSCFH) [Compound 110]

- activity at 1 µM [1]: 50.9%
- activity at 1 µM [2]: 62.7%
Compound: CCCCCCCCCCCCCCCC(=O)N[C@@H](CCSC)C(=O)NCC(=O)N[C@@H](Cc1ccc(O)cc1)C(=O)N[C@@H](CCC(N)=O)C(=O)N[C@@H](CCCCN)C(=O)N[C@@H](CCCCN)C(=O)N[C@@H](CC(C)C)C(=O)N[C@@H](CCCNC(=N)N)C(=O)N[C@@H](CO)C(=O)N[C@@H](CCSC)C(=O)N[C@H](C(=O)N[C@@H](CC(=O)O)C(=O)N[C@@H](CCCCN)C(=O)N[C@@H](Cc1ccc(O)cc1)C(=O)N[C@@H](CCCNC(=N)N)C(=O)N[C@H](C(N)=O)[C@@H](C)CC)[C@@H](C)O [Compound 49] (Palmitoyl-MGYQKKLRSMTDKYRI-NH2)

- AUC (% of vehicle) [8]: 37.55 % of vehicle
- Max (% of vehicle) [8]: 59.71 % of vehicle
Compound: 89: CXCR4 i3 loop compound (KLSHSKGHQKRKALKTTVIL) [Compound 89]

- activity at 1 µM [10]: 65.3%
- activity at 1 µM [11]: 80.5%
- Peak Test Compound [8]: 1 nM
- Peak Ratio [12]: 1
Compound: CCCCCCCCCCCCCCCC(=O)N[C@@H](CCCCN)C(=O)N[C@@H](CC(C)C)C(=O)N[C@@H](CO)C(=O)N[C@@H](Cc1cnc[nH]1)C(=O)N[C@@H](CO)C(=O)N[C@@H](CCCCN)C(=O)NCC(=O)N[C@@H](Cc1cnc[nH]1)C(=O)N[C@@H](CCC(N)=O)C(=O)N[C@@H](CCCCN)C(=O)N[C@@H](CCCNC(=N)N)C(=O)N[C@@H](CCCCN)C(=O)N[C@@H](C)C(N)=O [Compound 94] (Palmitoyl-KLSHSKGHQKRKA-NH2)

- activity at 1 µM [10]: 15.9%
- activity at 1 µM [11]: 54.8%
- Peak Test Compound [8]: 0.2 nM
- Peak Ratio [12]: 0.2
Compound: CCCCCCCCCCCCCCCC(=O)N[C@@H](CCCCN)C(=O)N[C@@H](CC(C)C)C(=O)N[C@@H](CO)C(=O)N[C@@H](Cc1cnc[nH]1)C(=O)N[C@@H](CO)C(=O)N[C@@H](CCCCN)C(=O)NCC(=O)N[C@@H](Cc1cnc[nH]1)C(=O)N[C@@H](CCC(N)=O)C(=O)N[C@@H](CCCCN)C(=O)N[C@@H](CCCNC(=N)N)C(=O)N[C@@H](CCCCN)C(=O)N[C@@H](C)C(=O)N[C@@H](CC(C)C)C(N)=O [Compound 93] (Palmitoyl-KLSHSKGHQKRKAL-NH2)

Compound: 53 (MGYQKKLRSMTDKYRLHL; not fully specified) [Compound 53]
- AUC (% of) [3]: 60.98 % of and 91.1 % of
- Max (% of) [3]: 68.45 % of and 89.56 % of

- AUC (% of vehicle) [8]: 36.4 % of vehicle
- Max (% of vehicle) [8]: 56.39 % of vehicle
Compound: 104: CXCR4 i3 loop compound (IIISKLSHSKGHQKRKALKT) [Compound 104]

- AUC (% of vehicle) [8]: 75.55 % of vehicle
- Max (% of vehicle) [8]: 74.92 % of vehicle
Compound: 101: CXCR4 i3 loop compound (SKLSHSKGHQKRKALK) [Compound 101]

- activity at 1 µM [1]: 53%
- activity at 1 µM [2]: 53.5%
Compound: CCCCCCCCCCCCCCCCC(NC(=O)CCCCCCCCCCCCC)C(=O)N[C@@H](CCSC)C(=O)NCC(=O)N[C@@H](Cc1ccc(O)cc1)C(=O)N[C@@H](CCC(N)=O)C(=O)N[C@@H](CCCCN)C(=O)N[C@@H](CCCCN)C(=O)N[C@@H](CC(C)C)C(=O)N[C@@H](CCCNC(=N)N)C(=O)N[C@@H](CO)C(=O)N[C@@H](CCSC)C(=O)N[C@H](C(=O)N[C@@H](CC(=O)O)C(=O)N[C@@H](CCCCN)C(=O)N[C@@H](Cc1ccc(O)cc1)C(=O)N[C@@H](CCCNC(=N)N)C(=O)N[C@H](C(N)=O)[C@@H](C)CC)[C@@H](C)O (some centres unmarked) [Compound 48] (Myristoyl-[ξGly(nC16H33)]MGYQKKLRSMTDKYRI-NH2)

- activity at 1 µM [10]: 52.6%
- activity at 1 µM [11]: 76.1%
- Peak Test Compound [8]: 0.2 nM
- Peak Ratio [12]: 0.2
Compound: CCCCCCCCCCCCCCCCC(NC(=O)CCCC[C@@H]1SC[C@@H]2NC(=O)N[C@@H]21)C(=O)N[C@@H](Cc1cnc[nH]1)C(=O)N[C@@H](CO)C(=O)N[C@@H](CCCCN)C(=O)NCC(=O)N[C@@H](Cc1cnc[nH]1)C(=O)N[C@@H](CCC(N)=O)C(=O)N[C@@H](CCCCN)C(=O)N[C@@H](CCCNC(=N)N)C(=O)N[C@@H](CCCCN)C(=O)N[C@@H](C)C(=O)N[C@@H](CC(C)C)C(=O)N[C@@H](CCCCN)C(N)=O (some centres unmarked) [Compound 87] (Biotin-[ξGly(nC16H33)]HSKGHQKRKALK-NH2)
